The numbers were not newly measured in article PMC3521240, which cites them from elsewhere.

The target in the series is PTX3 (Homo sapiens) (UniProt P26022).
Sequence of PTX3 (Homo sapiens) (P26022 18-381): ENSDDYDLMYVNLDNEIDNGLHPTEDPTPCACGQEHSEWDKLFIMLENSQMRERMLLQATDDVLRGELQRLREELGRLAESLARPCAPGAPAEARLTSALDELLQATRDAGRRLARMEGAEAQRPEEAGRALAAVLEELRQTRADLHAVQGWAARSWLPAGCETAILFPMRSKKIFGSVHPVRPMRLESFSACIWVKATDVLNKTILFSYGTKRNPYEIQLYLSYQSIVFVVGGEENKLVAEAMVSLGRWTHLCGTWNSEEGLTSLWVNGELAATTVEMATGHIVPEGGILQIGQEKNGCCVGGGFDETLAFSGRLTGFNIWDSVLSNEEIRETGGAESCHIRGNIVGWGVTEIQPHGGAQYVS

Sequence of AZU1 (P20160 27-248): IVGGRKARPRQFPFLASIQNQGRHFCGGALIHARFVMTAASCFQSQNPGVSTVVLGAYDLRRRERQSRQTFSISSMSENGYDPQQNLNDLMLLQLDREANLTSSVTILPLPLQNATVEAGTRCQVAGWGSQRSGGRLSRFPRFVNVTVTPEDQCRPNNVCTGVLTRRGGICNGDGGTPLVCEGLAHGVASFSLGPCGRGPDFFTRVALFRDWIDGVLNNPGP

By Kd is commonly meant the equilibrium constant for the complex coming apart. In the case of AZU1 (from UniProt P20160), the Kd is 22 nM.
